Data set [1] deals with Cy-PL-MPEG at 20% fluorochrome loading (11 of 55 free amino groups labelled with Cy5.5).
The target in a further data set is thrombin. Kind of data set: cell-based or functional assay.
Data set [2] has as its system T1, Gly-D-Phe-Pip-Arg-Pro-Gly-Gly-Gly-Gly-Lys(FITC)-Cys-NH2 (control peptide).
T1 sequence: GFXRPGGGGKC

The test system of data set [3] is T2, Gly-D-Phe-Pip-Arg-Ser-Gly-Gly-Gly-Gly-Lys(FITC)-Cys-NH2 (thrombin substrate peptide).
T2 sequence: GFXRSGGGGKC

The subject of data set [4] is T3, Gly-Pro-Leu-Gly-Val-Arg-Gly-Lys(FITC)-Cys-NH2 (MMP-2 peptide substrate).
T3 sequence: GPLGVRGKC

Data set [5] concerns T4, Gly-Val-Arg-Leu-Gly-Pro-Gly-Lys(FITC)-Cys-NH2 (scrambled control peptide).
T4 sequence: GVRLGPGKC

The target of data set [6] is MMP-2 (human recombinant protein purified from mammalian cells, Calbiochem), APMA activated (human) (UniProt P08253). The data set is described as follows: cell-based or functional assay.
The target of data set [7] is T5, MMP-7 (human recombinant, E. Coli, Calbiochem), APMA activated (human) (UniProt P09237).
T5 sequence (looked up): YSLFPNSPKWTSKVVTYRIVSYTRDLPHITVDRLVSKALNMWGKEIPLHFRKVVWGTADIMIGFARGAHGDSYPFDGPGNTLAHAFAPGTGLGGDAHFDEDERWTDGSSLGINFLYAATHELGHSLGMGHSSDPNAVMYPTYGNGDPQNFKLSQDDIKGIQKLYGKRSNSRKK
The data set is described as follows: cell-based or functional assay.

Data set [8] has as its target MMP-9 (human recombinant protein purified from mammalian cells, Oncogene Research Products), APMA activated (human) (UniProt P14780). Kind of data set: cell-based or functional assay.
Data set [9] has as its target MMP-1 (human rheumatoid synovial fibroblast, Calbiochem), APMA activated (human) (UniProt P03956). Kind of data set: cell-based or functional assay.
Data set [10] has as its target MMP-2 (gelatinase 72 kD, Boehringer Mannheim), activated with p-aminophenyl mercuric acid. The data set is described as follows: cell-based or functional assay.
Data set [11] deals with MMP-8 (human neutrophil granulocyte, Calbiochem), APMA activated (human) (UniProt P22894). Kind of data set: cell-based or functional assay.

The values below come from patent US20050169843A1.

Primed or numbered codes have the meaning given here. FITC′ = fluorescein isothiocyanate label

MMP-9 (human recombinant protein purified from mammalian cells, Oncogene Research Products), APMA activated (human), sequence (P14780 107-707 limits assumed): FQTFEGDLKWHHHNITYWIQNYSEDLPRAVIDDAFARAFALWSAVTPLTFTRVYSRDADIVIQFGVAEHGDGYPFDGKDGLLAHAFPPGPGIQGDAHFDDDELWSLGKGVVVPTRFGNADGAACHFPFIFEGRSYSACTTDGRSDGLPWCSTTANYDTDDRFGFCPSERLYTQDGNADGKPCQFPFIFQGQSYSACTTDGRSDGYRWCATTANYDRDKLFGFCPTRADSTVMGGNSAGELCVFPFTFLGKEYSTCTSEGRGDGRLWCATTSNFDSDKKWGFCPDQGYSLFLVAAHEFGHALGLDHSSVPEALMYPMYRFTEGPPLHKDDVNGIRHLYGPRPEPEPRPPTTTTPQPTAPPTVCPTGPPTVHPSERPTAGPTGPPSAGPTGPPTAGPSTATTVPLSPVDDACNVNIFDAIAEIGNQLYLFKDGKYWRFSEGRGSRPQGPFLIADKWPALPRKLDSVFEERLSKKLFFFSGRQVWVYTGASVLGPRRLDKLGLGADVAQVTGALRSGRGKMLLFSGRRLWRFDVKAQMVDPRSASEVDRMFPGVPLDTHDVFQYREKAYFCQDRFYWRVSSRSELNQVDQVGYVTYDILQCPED
MMP-2 (human recombinant protein purified from mammalian cells, Calbiochem), APMA activated (human), sequence (P08253 110-660 limits assumed): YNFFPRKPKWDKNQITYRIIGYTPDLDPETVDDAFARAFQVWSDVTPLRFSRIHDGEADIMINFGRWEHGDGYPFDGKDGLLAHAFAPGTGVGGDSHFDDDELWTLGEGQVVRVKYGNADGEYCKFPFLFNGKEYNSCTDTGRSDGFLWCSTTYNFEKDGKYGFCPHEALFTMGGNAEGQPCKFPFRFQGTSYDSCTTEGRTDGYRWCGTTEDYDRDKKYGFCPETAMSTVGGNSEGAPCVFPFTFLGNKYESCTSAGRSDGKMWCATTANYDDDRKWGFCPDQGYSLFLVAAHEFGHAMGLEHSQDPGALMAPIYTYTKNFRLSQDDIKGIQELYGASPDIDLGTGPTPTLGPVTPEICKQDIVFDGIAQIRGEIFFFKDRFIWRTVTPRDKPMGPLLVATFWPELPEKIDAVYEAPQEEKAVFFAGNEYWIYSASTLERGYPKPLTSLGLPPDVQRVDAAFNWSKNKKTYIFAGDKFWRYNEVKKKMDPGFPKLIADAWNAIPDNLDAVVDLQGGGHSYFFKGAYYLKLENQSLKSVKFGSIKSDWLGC
MMP-1 (human rheumatoid synovial fibroblast, Calbiochem), APMA activated (human), sequence (P03956 100-469 limits assumed): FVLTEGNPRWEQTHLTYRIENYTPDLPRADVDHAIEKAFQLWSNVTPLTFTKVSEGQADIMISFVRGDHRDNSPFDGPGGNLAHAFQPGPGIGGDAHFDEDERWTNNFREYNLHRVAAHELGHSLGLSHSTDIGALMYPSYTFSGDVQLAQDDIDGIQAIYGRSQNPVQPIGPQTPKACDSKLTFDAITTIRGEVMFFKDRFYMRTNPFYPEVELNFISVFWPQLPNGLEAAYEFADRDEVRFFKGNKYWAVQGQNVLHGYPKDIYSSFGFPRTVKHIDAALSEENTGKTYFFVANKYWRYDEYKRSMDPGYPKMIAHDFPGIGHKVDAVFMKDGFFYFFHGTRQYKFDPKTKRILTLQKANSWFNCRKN
MMP-8 (human neutrophil granulocyte, Calbiochem), APMA activated (human), sequence (P22894 101-467 limits assumed): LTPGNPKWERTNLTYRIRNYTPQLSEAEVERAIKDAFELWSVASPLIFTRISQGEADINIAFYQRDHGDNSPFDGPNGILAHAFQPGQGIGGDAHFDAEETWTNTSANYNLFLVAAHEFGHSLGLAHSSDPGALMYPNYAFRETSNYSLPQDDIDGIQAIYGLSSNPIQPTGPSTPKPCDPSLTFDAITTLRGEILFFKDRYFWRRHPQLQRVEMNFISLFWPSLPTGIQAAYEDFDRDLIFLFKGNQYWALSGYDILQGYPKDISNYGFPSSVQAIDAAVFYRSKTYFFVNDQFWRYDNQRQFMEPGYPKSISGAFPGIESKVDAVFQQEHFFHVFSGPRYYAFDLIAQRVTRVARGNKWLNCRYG

For the molecule trypsin, the “fluorescence signal increase upon activation (trypsin cleavage of the backbone)” value in [1] is recorded as “Maximum fluorescence recovery was obtained at 20% loading (15-fold fluorescence signal increase upon activation)”.

Take “control probe (PGC graft copolymer carrying Cy5.5-labelled thrombin control peptide)”: the NIRF signal after addition of thrombin with thrombin worked out at 1 fold.

With thrombin, the “enzymatic assay, cleavage followed by HPLC” value in data set [2] was “there was no cleavage when the serine at P1′ position was replaced by a proline residue”; in [3] it was “the peptide was recognized by thrombin and cleaved into two major products”.

Turning to “MMP-2 (gelatinase 72 kD, Boehringer Mannheim), activated with p-aminophenyl mercuric acid”, the “cleavage followed by HPLC” value in data set [4] and in data set [5] was “confirmed by HPLC showing only cleavage of the former but not the latter” in each case.

B1: MMP-2 sensitive probe (PGC graft copolymer carrying Cy5.5-labelled MMP-2 substrate peptides) (peptide, part only; not given: graft copolymer backbone and dye, part only)
peptide: {Cy5.5}-GPLGVRGK(FITC′)C-NH2
modifications: not fully specified (residue 9); printed as GPLGVRGK(FITC)C-NH2; also: about 12 peptides per PGC graft copolymer
Consider B1, for which, in [6], the fluorescence activation (7 pmole enzyme, 10 pmole probe, 10 minutes, 37°) stood at 4.7 AU. Besides, the relative fluorescence increase at equimolar conditions (scaled to active MMP-2 set to 100%) in data set [7] worked out at 12%; in data set [8], 19%; in [9], 19%; in data set [11] it was 28%. Moreover, the fluorescence increase in vitro in data set [10] is less than 850%.
